Reference: article PMC11703348, “Role of Aspartate 42 and Histidine 79 in the aiPLA2 activity and oligomeric status of Prdx6 at low pH” (Research Square, 2024)
Changes are numbered by the printed parent chain. Numbers in names are those of the source.

B1: Peroxiredoxin 6 (Prdx6), recombinant rat wild type (enzyme, UniProt O35244 1-224, looked up)
chain: MPGGLLLGDEAPNFEANTTIGHIRFHDFLGDSWGILFSHPRDFTPVCTTELGRAAKLAPEFAKRNVKLIALSIDSVEDHFAWSKDINAYNGAAPTEKLPFPIIDDKDRDLAILLGMLDPAEKDEKGMPVTARVVFIFGPDKKLKLSILYPATTGRNFDEILRVVDSLQLTASNPVATPVDWKKGESVMVLPTLPEEEAKQLFPKGVFTKELPSGKKYLRYTPQP
notes: Peroxiredoxin 6 (Prdx6), rat, wild type; cloned between the NdeI and SapI sites of pTYB1; no extra residues remain after intein self-cleavage; also called Wt Prdx6; WT Prdx6
B2: D42A Prdx6 (Asp42 to Ala mutant of rat Prdx6) (enzyme, UniProt O35244 1-224, looked up)
chain: B1 chain with D42A
notes: Peroxiredoxin 6 (Prdx6), rat, with Asp42 replaced by Ala (QuikChange mutagenesis); the methods print it once as Asp43Ala; Same construct as m1 with the point mutation; also called Asp42A; Asp42-Ala
B3: H79A Prdx6 (His79 to Ala mutant of rat Prdx6) (enzyme, UniProt O35244 1-224, looked up)
chain: B1 chain with H79A
notes: Peroxiredoxin 6 (Prdx6), rat, with His79 replaced by Ala (QuikChange mutagenesis); Same construct as m1 with the point mutation; also called His79A; His79-Ala

Legend:
[1] = target: the molecule itself; assay: dynamic light scattering; pH 7.4; protein 2 mg/ml, 25 °C; hydrodynamic diameter and volume fraction (Zetasizer)
[2] = target: the molecule itself; assay: native gel or EMSA; native-PAGE at low pH: 40 mM Na-acetate pH 4, running buffer 30 mM beta alanine, 20 mM lactic acid pH 3.8, reverse polarity; continuous 7.5% gel, non-reducing, non-denaturing; markers BSA and ferritin
[3] = target: the molecule itself; assay: native gel or EMSA; native-PAGE at neutral pH: 50 mM Tris-HCl, 100 mM NaCl pH 7.4, running buffer 35 mM Hepes, 43 mM imidazole pH 7.4; continuous 7.5% gel, non-reducing, non-denaturing; markers BSA and ferritin

Protein | stoichiometry N [1] | stoichiometry N [2] | stoichiometry N [3]
B1 | 2 |  | 
B2 |  | ~2 | 2
B3 |  | ~2 | 2
